Experiments:
RORα1 [1] = target: T1, RORα1 (Homo sapiens, UniProt P35398 P35398:1-523); assay: EMSA; supershift with RORα1 antibody; native competitor 1x-100x; exact probe length not stated; conditions: tags: TNT-T7 Promega; hRORα1; label: labelled probe
T1 sequence: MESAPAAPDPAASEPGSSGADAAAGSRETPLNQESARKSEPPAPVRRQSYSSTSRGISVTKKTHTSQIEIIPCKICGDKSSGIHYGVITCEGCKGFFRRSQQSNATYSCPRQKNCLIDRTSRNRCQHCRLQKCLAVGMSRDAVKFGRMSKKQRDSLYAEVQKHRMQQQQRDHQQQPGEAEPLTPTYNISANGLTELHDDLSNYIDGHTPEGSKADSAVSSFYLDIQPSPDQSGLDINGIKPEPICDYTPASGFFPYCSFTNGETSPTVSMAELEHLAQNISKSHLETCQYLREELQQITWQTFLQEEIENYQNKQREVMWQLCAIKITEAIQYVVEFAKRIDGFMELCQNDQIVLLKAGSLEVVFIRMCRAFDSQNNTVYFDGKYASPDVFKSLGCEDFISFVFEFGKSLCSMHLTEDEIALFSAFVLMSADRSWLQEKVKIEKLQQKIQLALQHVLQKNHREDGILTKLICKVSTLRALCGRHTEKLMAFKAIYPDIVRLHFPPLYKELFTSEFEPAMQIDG
Experimental: (§1) FIG. 6C depicts the gel shift experiments conducted by using the in vitro translated RORαl protein (TNT-T7 Promega) and an IκBα-RORE labelled probe. […] To […] the mobility of the complex, 1 μl of RORα1 antibody was added to the binding reaction (S: shift of the complex; SS: super-shift of the complex; FP: unbound probe).
(§2) It has been shown that the negative dominant RORαΔ235 missing the LBD domain inhibits RORα1-induced transcription by competing with the same DNA binding domain (Mc Broom, L. D. B., Flock, G. and Giguère, V., Mol. Cell. Biol. 1995, 15: 796-808). The effect of this mutant on the promoter under the control of the IκBα gene RORE inducible by RORα1 was tested. Cotransfection with RORαΔ235 abolished the effect of RORα1 (FIG. 6B). […] Finally, binding of RORα1 to its response element RORE was checked by gel shift assays, using in vitro translated RORα1 protein.

RORα1 [2] = target: T1, RORα1; assay: competition; unlabelled mutated competitor 1x-100x used as specificity control; full oligo sequence not stated, SEQ 15 matches the ACCTCA mutation; conditions: tags: TNT-T7 Promega; hRORα1
Experimental: as §1, §2

B1: IκBα-RORE (dsDNA)
DNA 1: GAGCACAATGTAGGTCAGATAG
DNA 2: CTATCTGACCTACATTGTGCTC
binding result (RORα1 [1]): binds

B2: IκBα-RORE mutant (dsDNA)
DNA 1: GAGCACAATGTACCTCAGATAG
DNA 2: CTATCTGAGGTACATTGTGCTC
binding result (RORα1 [2]): no binding

Source: patent US20050260575, “Method for identifying substances useful for treating inflammation using the response element to the ikbalpha ror receptor” (published 2005)
